In patent publication US10098960B2, “Polymer conjugate” (UCL Business PLC, priority 2015, dated 2018):
Positions count from the first letter of the chain named. Numbers in names are those of the source.

Columns and labels:
[1] = test system: APS IgG-induced femoral vein thrombus formation; assay: In vivo mouse blood clot model (blood vessel pinch model); design: species or system C57BL/6 mice; settings: recombinant wild-type DI 40 μg intraperitoneally at 0 h and 48 h; 500 μg APS IgG; femoral vein pinch at 72 h; FIG. 10
Protocol: In vivo analysis of inhibition of thrombus formation by DI was carried out in a similar manner to those described within Ioannou et al., 2009, Journal of Thrombosis and Haemostasis, 7: 833-842, In vivo inhibition of antiphospholipid antibody-induced pathogenicity utilizing the antigenic target peptide domain I of beta2-glycoprotein I: proof of concept.
C57BL/6 mice (The Jackson Laboratory, Bar Harbor, Me., USA) were used for these studies.
NHS IgG and APS IgG mean protein G purified antibody obtained from Normal Healthy Subjects or APS patients respectively.
At time 0 h, 2 control groups were untreated, whereas 3 groups of mice were injected intraperitoneally with either recombinant wild-type DI (40 μg), PEGylated wild-type DI (20 μg) or PEG alone, in phosphate-buffered saline (PBS). After 60 min, 4 groups of mice were then treated intraperitoneally with 500 μg of APS IgG, while 1 group received 500 μg of NHS IgG, both in PBS. Both of these treatments were repeated at 48 h and 49 h respectively. The APS IgG dose was the minimal amount of APS IgG antibody required to increase thrombus size beyond two standard deviations (SDs) of the mean size induced by control NHS IgG post-injury. The APS IgG/DI molar ratios were 2.3:1, 1.15:1. […] A pinch stimulus was applied and the thrombus formation was visualised using a transilluminator and measured electronically. […]

[2] = test system: purified IgG from patients with APS in normal human plasma (lupus anticoagulant effect); assay: LA (Lupus Anticoagulant) dilute Russel Viper Venom (dRVT-plus) coagulometer assay; format: biochemical; settings: 500 μg/ml antibody and 25 μg/ml DI; IgG from four APS patients; FIGS. 8A-8D
Protocol: LA (Lupus Anticoagulant) Dilute Russel Viper Venom (dRVT-plus) Assay:
Assay reagents were used as described in manufacturer's (Haematex) instructions.
This assay reproduces the “lupus anticoagulant” (LA) effect, a test in which antibodies from serum of patients with APS cause a measurable prolongation of clotting time under specific conditions in vitro. Purified IgG from four patients with APS (shown as FIGS. 8A-8D) was pre-incubated with the DI constructs at a molar ratio of ˜1:1 (500 μg/ml antibody and 25 μg/ml DI) before being added to normal human plasma either with or without excess phospholipid—which prevents the anticoagulant effect of the IgG. The results are expressed as ratio of clotting time in absence to that in the presence of excess phospholipid. The higher the ratio, the greater the biological effect exerted by the IgG-APS.
Plasma was thawed on ice, meanwhile the Coagulometer (CA-50, Sysmex) was allowed to warm and reagents were prepared.
Patient antibodies were purified using Protein G IgG purification kit (Pierce), as described by manufacturer's instructions. IgA antibodies are purified using Jacalin beads (Pierce), as per manufacturer's instructions. […]
Plasma was dispensed into glass vials (200 μl×2) and reagents, either low [phospholipid] […] When the clot reached 50% the timing was stopped and recorded. […]

[3] = test system: IgA binding to immobilised β2GPI; assay: Competitive inhibition ELISA for IgA binding to β2GPI; design: species or system human; settings: FIG. 9
Protocol: (§1) Competitive inhibition ELISA was carried out to test the ability of recombinant DI to inhibit binding of purified IgG from patients with APS to immobilised β2GPI. The assay was adapted from the standard β2GPI ELISA published by Ioannou et al., (BMC biotechnology 2006, 6:8) with the following amendments: the inhibitors were pre-incubated at concentrations ranging from 0 mg/ml to 200 μg/ml rather than 0 to 30 μM. Briefly, the test was carried out to test the ability of recombinant DI to inhibit binding of purified IgG from patients with APS to β2GPI coated on a plate. Recombinant DI was pre-incubated with patient serum prior to addition on the ELISA plate coated with β2GPI. Bound patient IgG was detected with an anti-human IgG HRP secondary antibody. Each sample was tested in duplicate.
Assays were carried out using identical methodology to Example 6 with the following alteration; an anti-human IgA secondary conjugated to HRP was used rather than an anti-human IgG secondary antibody.

[4] = test system: binding of aPLs to immobilised native antigen; settings: aPLs from patients with pregnancy loss and with thrombosis; Ioannou et al. 2007; cited from earlier work
[5] = test system: aPL-induced venous thrombosis formation; settings: mouse model of APS; Ioannou et al. 2009; cited from earlier work
[6] = test system: binding of purified IgG from patients with APS to immobilised β2GPI; assay: Competitive inhibition ELISA (IgG); design: species or system human; settings: 175 μg/ml of test protein
Protocol: as §1
Competitive inhibition data is generally expressed as retained binding of the antibody to the antigen on the plate in the presence of the inhibitor protein (DI-PEG or DI). […] Activities of PEGylated or non-PEGylated DI are given based on % inhibition. FIGS. 7A-7F show % inhibition data for pegylated and non-pegylated DI constructs.

B1: wild-type DI: recombinant wild-type domain I of human β2GPI, SEQ ID NO: 2, approximately 7 kDa, unconjugated (protein, listed as Homo sapiens)
chain: GRTCPKPDDLPFSTVVPLKTFYEPGEEITYSCKPGYVSRGGMRKFICPLTGLWPINTLKCTPR
modifications: ends and bridges not checked
inhibition of thrombus formation (clot size) [1]: prevented the formation of large blood clots
inhibition of lupus anticoagulant effect (ratio of clotting time in absence to presence of excess phospholipid) [2]: inhibit this biological effect of IgG APS
inhibition of IgA binding to β2GPI [3]: inhibits IgA binding to β2GPI
inhibition of binding of aPLs to immobilised native antigen [4]: inhibit the binding of aPLs
inhibition of in vivo aPL-induced venous thrombosis formation [5]: inhibit in vivo aPL-induced venous thrombosis formation

B2: WT DI-PEG (20 kDa): wild-type domain I β2GPI (SEQ ID NO: 2) mono-PEGylated across a disulfide bridge with 20 kDa PEG reagent 1 (conjugate, listed as Homo sapiens)
chain: B1 chain
modifications: not fully specified (bridges); ends and bridges not checked; also: mono-PEGylated across a disulfide bridge, Cys places not given here
Retained Activity of WT DI-PEG (20 kDa) Vs WT DI (%) ([6]; Patient 1 IgG): 98.5%
Retained Activity of WT DI-PEG (20 kDa) Vs WT DI (%) ([6]; Patient 2 IgG): 74.9%
Retained Activity of WT DI-PEG (20 kDa) Vs WT DI (%) ([6]; Patient 3 IgG): 88.3%
Retained Activity of WT DI-PEG (20 kDa) Vs WT DI (%) ([6]; Patient 4 IgG): 91.5%
Retained Activity of WT DI-PEG (20 kDa) Vs WT DI (%) ([6]; Patient 5 IgG): 70%
Retained Activity of WT DI-PEG (20 kDa) Vs WT DI (%) ([6]; Patient 6 IgG): 91.9%

B3: DI(D8S/D9G): variant of domain I of human β2GP1, SEQ ID NO: 3, unconjugated (protein)
chain: B1 chain with D8S, D9G
modifications: ends and bridges not checked
inhibition of binding of aPLs to immobilised native antigen [4]: inhibition is greater
inhibition of in vivo aPL-induced venous thrombosis formation [5]: inhibit in vivo aPL-induced venous thrombosis formation

B4: D8S, D9G mutant-PEG (20 kDa): D8S,D9G variant domain I (SEQ ID NO: 3) mono-PEGylated with 20 kDa PEG reagent (conjugate)
chain: B1 chain with D8S, D9G
modifications: ends and bridges not checked; also: mono-PEGylated with 20 kDa PEG reagent, site not given here
Retained Activity of D8S, D9G mutant-PEG (20 kDa) Vs D8S, D9G (%) ([6]; Patient 1 IgG): 87.8%
Retained Activity of D8S, D9G mutant-PEG (20 kDa) Vs D8S, D9G (%) ([6]; Patient 2 IgG): 70.8%
Retained Activity of D8S, D9G mutant-PEG (20 kDa) Vs D8S, D9G (%) ([6]; Patient 3 IgG): 83.3%
Retained Activity of D8S, D9G mutant-PEG (20 kDa) Vs D8S, D9G (%) ([6]; Patient 4 IgG): 100%
Retained Activity of D8S, D9G mutant-PEG (20 kDa) Vs D8S, D9G (%) ([6]; Patient 5 IgG): 64%
Retained Activity of D8S, D9G mutant-PEG (20 kDa) Vs D8S, D9G (%) ([6]; Patient 6 IgG): 100%
